The text below walks through data of US20140199302A1 (GENERAL HOSPITAL, published 2014).

The target in assay [1] is T1, soluble human hemojuvelin with a HIS-tag (HJV.His) (human, UniProt Q6ZVN8 36-400, limits assumed).
T1 construct: also called monomeric HJV.His; not shown: HIS-tag
T1 sequence (looked up): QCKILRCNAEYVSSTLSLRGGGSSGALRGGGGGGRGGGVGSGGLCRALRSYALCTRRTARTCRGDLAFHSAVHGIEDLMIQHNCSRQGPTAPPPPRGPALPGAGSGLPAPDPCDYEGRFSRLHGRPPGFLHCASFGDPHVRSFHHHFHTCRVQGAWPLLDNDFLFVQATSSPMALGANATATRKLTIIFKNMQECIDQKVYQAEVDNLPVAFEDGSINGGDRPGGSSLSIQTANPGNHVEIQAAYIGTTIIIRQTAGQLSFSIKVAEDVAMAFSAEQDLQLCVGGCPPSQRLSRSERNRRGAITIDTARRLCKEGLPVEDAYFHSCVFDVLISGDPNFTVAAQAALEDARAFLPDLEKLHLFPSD
The experiment in a line: Biacore SPR, HJV.His in solution over human BMP6 immobilized on a CM5 chip by amine coupling; 1:1 binding fit (Chi2 9.32 printed beside it). On the technique in general: SPR reads the build-up and loss of mass on a sensor chip optically.

Assay [2] addresses T1, soluble human hemojuvelin with a …. Description: SPR (Biacore), human BMP6 amine-coupled on CM5 chip, one-site univalent fit model; monomeric HJV.His; one-site univalent fit.

B1: human BMP6 (ligand, UniProt P22004 382-513, looked up)
chain: QQSRNRSTQSQDVARVSSASDYNSSELKTACRKHELYVSFQDLGWQDWIIAPKGYAANYCDGECSFPLNAHMNATNHAIVQTLVHLMNPEYVPKPCCAPTKLNAISVLYFDDNSNVILKKYRNMVVRACGCH
notes: also called bone morphogenic protein-6
With B1, the results for the Kd in assay [1] and in assay [2] were 36 nM and approximately 33 nM, respectively.
